Measured values from patent publication US20090053203A1 (ONTHERIX, published 2009).
Ends that are not written are not given here.

Key:
Experiment in all cases: chemical cross-linking of the biotinylated peptide on chilled cells, capture on Ni-NTA plates, detection with an antibody to the marker
[1] = biological target: T1, transferrin receptor 1 (UniProt P02786 1-760, limits assumed)
T1 construct: whole, on cells
Protocol: (§1) HEK293 kidney cell line and 54 tumor cell lines obtained from the National Cancer Institute and passaged in RPMI1640 cell culture medium supplemented with 10% fetal bovine serum and 10 uM FeCl₂. Uptake of streptavidin-horseradish peroxidase (SA-HRP) conjugate and of various SA-HRP::MBD peptide complexes was determined as described (Singh et al. J Biol Chem. 279 (1):477-87 [2004]) using biotinylated MBD9 ([…]) (SEQ ID NO: 10) and MBD21 ([…]) (SEQ ID NO: 4) peptides and SA-HRP. Nuclear and cytoplasmic localization of these proteins was also determined in each case. […] In order to establish the underlying molecular mechanism for this variability, we cross-linked MBD21 peptide to the following cell surface markers at 4 degrees Celsius as previously described (Singh et al. J Biol Chem. 279 (1):477-87 [2004]): transferrin receptor 1, caveolin 1, PCNA, integrins alpha v, 2, 5 and 6, integrins beta 1, 3 and 5. […] Based on the strength of these correlations, it was possible to derive crude predictive formulae for MBD-mediated uptake based on the rate of cross-linking to surface markers. Such predictive formulas could form the basis for a diagnostic procedure to select appropriate targets for MBD-based therapies.

[2] = biological target: T2, caveolin 1 (UniProt Q03135 2-178, limits assumed)
T2 construct: whole, on cells
T2 sequence (looked up): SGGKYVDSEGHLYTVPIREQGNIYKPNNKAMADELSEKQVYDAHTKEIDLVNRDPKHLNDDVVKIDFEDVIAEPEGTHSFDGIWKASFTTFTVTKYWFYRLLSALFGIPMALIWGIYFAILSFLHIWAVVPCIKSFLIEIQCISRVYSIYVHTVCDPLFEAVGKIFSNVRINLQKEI
Protocol: as §1

[3] = biological target: T3, PCNA (UniProt P12004 1-261, limits assumed)
T3 construct: whole, on cells
T3 sequence (P12004 whole entry): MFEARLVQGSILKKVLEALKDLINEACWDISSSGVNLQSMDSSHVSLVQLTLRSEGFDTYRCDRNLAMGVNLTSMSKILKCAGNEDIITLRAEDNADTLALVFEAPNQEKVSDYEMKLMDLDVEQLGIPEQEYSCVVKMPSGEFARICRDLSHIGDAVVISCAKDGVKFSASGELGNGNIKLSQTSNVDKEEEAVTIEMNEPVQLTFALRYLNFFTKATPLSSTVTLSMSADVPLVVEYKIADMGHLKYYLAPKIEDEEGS
Protocol: as §1

Measured: binding result

T1 sequence (P02786 whole entry): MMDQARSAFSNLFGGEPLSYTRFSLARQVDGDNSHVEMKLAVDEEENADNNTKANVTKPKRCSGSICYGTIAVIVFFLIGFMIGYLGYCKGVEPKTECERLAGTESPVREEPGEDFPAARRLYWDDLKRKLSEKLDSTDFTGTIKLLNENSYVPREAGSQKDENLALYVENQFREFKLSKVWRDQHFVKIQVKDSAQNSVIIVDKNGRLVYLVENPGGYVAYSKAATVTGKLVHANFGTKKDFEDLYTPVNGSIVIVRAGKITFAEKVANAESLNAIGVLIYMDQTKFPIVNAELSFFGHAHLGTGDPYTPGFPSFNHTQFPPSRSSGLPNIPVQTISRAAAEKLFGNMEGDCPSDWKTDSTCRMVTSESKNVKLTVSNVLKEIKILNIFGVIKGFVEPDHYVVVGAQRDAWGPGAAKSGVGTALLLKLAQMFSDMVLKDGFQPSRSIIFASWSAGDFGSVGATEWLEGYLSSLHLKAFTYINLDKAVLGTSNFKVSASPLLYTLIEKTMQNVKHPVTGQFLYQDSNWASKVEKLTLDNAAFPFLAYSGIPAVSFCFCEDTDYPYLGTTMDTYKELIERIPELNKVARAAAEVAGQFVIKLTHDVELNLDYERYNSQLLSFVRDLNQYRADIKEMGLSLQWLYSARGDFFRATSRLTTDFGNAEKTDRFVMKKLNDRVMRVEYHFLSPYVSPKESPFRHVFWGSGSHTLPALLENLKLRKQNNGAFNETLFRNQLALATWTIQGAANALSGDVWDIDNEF

KKGFYKKKQCRPSKGRKRGFCWAVDKYG (cysteine pairing not given here; also: biotinylated, position not given here, also called biotinylated MBD21 peptide) [MBD21 peptide (biotinylated)]
binds: all assays above
